# Assay results as given in paper PMC8933513 (2022).
# “And” between values parts separate entries of the source, which are not always exact repeats. Equal values may be shown once.
# Columns and labels:
# Test in all cases: SPR; BIAcore X-100, room temperature; hAPN/pAPN WT or mutant immobilised on CM5 chips via amine coupling; serially diluted PDCoV RBD WT or mutant flowed over in HEPES buffer (0.01 M HEPES, 0.15 M NaCl, 0.5% surfactant P20, 3 mM EDTA, pH 7.4); steady-state affinity model; each of two experiments listed
# [1] = biological target: human aminopeptidase N ectodomain K379A (human) (UniProt P15144)
# human aminopeptidase N ectodomain K379A (human), sequence (P15144 62-963 K379A): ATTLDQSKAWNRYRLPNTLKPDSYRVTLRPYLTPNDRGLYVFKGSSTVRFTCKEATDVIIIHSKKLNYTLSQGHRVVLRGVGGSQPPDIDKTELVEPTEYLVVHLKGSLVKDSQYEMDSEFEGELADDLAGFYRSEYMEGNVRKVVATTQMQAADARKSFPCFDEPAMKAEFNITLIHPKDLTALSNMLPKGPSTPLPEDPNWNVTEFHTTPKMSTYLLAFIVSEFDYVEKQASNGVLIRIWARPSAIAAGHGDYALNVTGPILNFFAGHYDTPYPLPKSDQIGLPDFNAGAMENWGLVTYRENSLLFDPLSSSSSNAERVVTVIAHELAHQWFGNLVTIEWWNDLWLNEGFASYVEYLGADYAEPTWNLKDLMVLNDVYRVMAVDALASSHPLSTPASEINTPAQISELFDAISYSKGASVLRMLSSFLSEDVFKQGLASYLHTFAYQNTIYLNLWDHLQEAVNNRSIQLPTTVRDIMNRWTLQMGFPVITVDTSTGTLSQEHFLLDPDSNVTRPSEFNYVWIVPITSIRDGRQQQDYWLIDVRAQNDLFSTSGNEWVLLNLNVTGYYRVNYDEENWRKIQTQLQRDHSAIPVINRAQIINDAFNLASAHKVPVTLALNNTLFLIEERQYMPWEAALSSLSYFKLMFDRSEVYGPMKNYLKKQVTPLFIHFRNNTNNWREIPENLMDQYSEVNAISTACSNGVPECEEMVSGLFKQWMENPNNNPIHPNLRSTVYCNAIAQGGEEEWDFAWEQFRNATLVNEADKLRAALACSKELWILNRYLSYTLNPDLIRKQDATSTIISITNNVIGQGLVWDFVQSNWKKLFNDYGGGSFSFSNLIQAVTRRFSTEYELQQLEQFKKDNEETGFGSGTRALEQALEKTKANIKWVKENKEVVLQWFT
# [2] = biological target: human aminopeptidase N ectodomain, wild type (human) (UniProt P15144)
# human aminopeptidase N ectodomain, wild type (human), sequence (P15144 62-963): as the sequence (P15144 62-963 K379A) above, with A318K counted along it
# [3] = biological target: human aminopeptidase N ectodomain E745A (human) (UniProt P15144)
# human aminopeptidase N ectodomain E745A (human), sequence (P15144 62-963 E745A): as the sequence (P15144 62-963 K379A) above, with A318K, E684A counted along it
# [4] = biological target: human aminopeptidase N ectodomain E426A (human) (UniProt P15144)
# human aminopeptidase N ectodomain E426A (human), sequence (P15144 62-963 E426A): as the sequence (P15144 62-963 K379A) above, with A318K, E365A counted along it
# [5] = biological target: porcine aminopeptidase N ectodomain, wild type (pig) (UniProt P15145)
# porcine aminopeptidase N ectodomain, wild type (pig), sequence (P15145 58-961): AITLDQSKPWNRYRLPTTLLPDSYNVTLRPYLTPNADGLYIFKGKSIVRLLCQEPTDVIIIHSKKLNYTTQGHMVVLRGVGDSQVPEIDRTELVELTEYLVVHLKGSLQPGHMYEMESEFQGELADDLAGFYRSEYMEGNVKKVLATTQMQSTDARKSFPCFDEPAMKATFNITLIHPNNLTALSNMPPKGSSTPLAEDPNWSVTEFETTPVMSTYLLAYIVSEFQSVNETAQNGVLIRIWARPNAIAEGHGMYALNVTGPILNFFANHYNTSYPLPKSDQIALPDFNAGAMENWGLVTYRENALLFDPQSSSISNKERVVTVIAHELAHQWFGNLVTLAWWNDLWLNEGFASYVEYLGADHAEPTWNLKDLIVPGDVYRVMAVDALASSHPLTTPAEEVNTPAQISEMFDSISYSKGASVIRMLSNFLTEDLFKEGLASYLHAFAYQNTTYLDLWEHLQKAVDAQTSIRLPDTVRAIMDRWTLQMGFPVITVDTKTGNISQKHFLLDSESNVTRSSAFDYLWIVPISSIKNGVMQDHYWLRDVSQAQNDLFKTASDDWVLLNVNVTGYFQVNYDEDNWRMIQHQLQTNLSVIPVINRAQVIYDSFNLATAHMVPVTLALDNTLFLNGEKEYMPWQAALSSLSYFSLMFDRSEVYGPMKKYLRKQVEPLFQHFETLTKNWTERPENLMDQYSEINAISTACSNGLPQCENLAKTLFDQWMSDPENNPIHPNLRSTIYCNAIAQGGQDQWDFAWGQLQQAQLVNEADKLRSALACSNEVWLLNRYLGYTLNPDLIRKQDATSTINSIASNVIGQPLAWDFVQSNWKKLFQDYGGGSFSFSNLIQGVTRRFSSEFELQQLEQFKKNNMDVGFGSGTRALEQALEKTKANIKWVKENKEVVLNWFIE
# [6] = biological target: human aminopeptidase N ectodomain Y316A (human) (UniProt P15144)
# human aminopeptidase N ectodomain Y316A (human), sequence (P15144 62-963 Y316A): as the sequence (P15144 62-963 K379A) above, with Y255A, A318K counted along it
# [7] = biological target: human aminopeptidase N ectodomain E742A (human) (UniProt P15144)
# human aminopeptidase N ectodomain E742A (human), sequence (P15144 62-963 E742A): as the sequence (P15144 62-963 K379A) above, with A318K, E681A counted along it
# [8] = biological target: porcine aminopeptidase N ectodomain E421A (pig) (UniProt P15145)
# porcine aminopeptidase N ectodomain E421A (pig), sequence (P15145 58-961 E421A): as the sequence (P15145 58-961) above, with E364A counted along it
# [9] = biological target: human aminopeptidase N ectodomain H789A (human) (UniProt P15144)
# human aminopeptidase N ectodomain H789A (human), sequence (P15144 62-963 H789A): as the sequence (P15144 62-963 K379A) above, with A318K, H728A counted along it
# [10] = biological target: human aminopeptidase N ectodomain W429A (human) (UniProt P15144)
# human aminopeptidase N ectodomain W429A (human), sequence (P15144 62-963 W429A): as the sequence (P15144 62-963 K379A) above, with A318K, W368A counted along it
# [11] = biological target: porcine aminopeptidase N ectodomain W424A (pig) (UniProt P15145)
# porcine aminopeptidase N ectodomain W424A (pig), sequence (P15145 58-961 W424A): as the sequence (P15145 58-961) above, with W367A counted along it
substance,measurement,setting,value
"PDCoV RBD (receptor binding domain of the porcine deltacoronavirus spike protein), wild type (domain or fragment)",Kd,[1],516 µM and 371 µM
same,Kd,[2],3.76 µM and 3.66 µM
same,Kd,[3],3.13 µM and 3 µM
same,Kd,[4],305 µM and 362 µM
same,Kd,[5],42 µM and 46.5 µM
same,Kd,[6],35.7 µM and 38.5 µM
same,Kd,[7],14.3 µM and 13.2 µM
same,Kd,[8],103 µM and 146 µM
same,Kd,[9],6.47 µM and 6.03 µM
same,Kd,[10],158 µM and 97 µM
same,Kd,[11],113 µM and 119 µM
